Assay results from PMC5030662.
“And” between values parts separate entries of the source, which are not always exact repeats. Identical values can stand only once.

Legend:
[1] = target: voltage-gated potassium channel KV1.6 (rat) (UniProt P17659)
[2] = target: KcsA-KV1.1 hybrid channel; assay: competitive binding on spheroplasts by confocal fluorescence microscopy
[3] = target: KcsA-KV1.3 hybrid channel; assay: as above

Chain of UniProt P17659 (P17659 whole entry): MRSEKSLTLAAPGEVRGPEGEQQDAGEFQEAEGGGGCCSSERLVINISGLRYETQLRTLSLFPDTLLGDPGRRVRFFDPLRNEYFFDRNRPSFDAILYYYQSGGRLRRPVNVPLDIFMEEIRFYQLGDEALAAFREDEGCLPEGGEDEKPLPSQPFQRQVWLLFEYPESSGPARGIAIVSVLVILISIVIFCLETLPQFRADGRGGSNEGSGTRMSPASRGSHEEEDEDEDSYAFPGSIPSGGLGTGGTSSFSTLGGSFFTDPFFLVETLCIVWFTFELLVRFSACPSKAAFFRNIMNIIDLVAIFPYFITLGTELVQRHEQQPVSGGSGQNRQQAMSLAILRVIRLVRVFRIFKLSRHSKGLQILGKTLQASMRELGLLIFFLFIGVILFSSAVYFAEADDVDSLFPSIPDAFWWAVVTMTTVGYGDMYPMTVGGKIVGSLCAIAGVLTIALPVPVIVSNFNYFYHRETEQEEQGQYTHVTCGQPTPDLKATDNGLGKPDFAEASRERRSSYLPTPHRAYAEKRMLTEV

Molecule	IC50 of inhibition of KV1.6 currents, two-electrode voltage clamp in Xenopus oocytes [1] [nM]	Kd [2]	Kd [3]
AgTx2 (from UniProt P46111 1-38) (peptide)	92		
OSK1 (from UniProt P55896 1-38) (peptide)	71		
GVIINVKCKISRQCLEPCKKAGMRFGKCMNGKCHCTPK [OSK1]		1.31 nM and 1.42 nM	0.9 nM and 0.7 nM
GVPINVSCTGSPQCIKPCKDAGMRFGKCMNRKCHCTPK [AgTx2]		0.049 nM and 0.067 nM	0.031 nM and 0.03 nM
